The results in this text go back to article PMC7065273 (Molecular cell, 2019).

This assay has as its target His6-FLAG-tagged U2AF2 (amino acids 367-475), purified from E. coli (UniProt P26368 367-475). The assay can be described thus: co-IP.

Sequence of His6-FLAG-tagged U2AF2 (amino acids 367-475), purified from E. coli (P26368 367-475): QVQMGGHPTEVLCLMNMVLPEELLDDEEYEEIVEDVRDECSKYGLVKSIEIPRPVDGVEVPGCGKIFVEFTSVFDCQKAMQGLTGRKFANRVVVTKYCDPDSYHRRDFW

On to APAAPGKPASAATVKRKRKSRWGPEEDKVELPPAEL (domain or fragment, UniProt Q8IWZ8 366-401, looked up) [GST-tagged SUGP1 (amino acids 366-401), purified from E. coli], for which the binding result is “binds”.
